Reference: publication PMC10065799, “High-throughput profiling of sequence recognition by tyrosine kinases and SH2 domains using bacterial peptide display” (eLife, 2023)
Square brackets hold non-standard residues; d marks the D form. pY = N[C@@H](Cc1ccc(OP(=O)(O)O)cc1)C(=O)O

Biological target: human c-Src SH2 domain (residues 143-250) (human, UniProt P12931-1 143-250, biotin on the Avi tag (co-expression with the biotin ligase BirA))
Assay: fluorescence polarisation; competition: unlabeled phosphopeptide serially diluted against 30 nM fluorescent peptide and 240 nM (1.5 x KD) c-Src SH2; same buffer; 25 °C; cubic binding equation
Conditions: both partners purified

Binder	binding result
Ac-QSDQRR[pY]SLIDRG-NH2 (SMILES CC[C@H](C)[C@H](NC(=O)[C@H](CC(C)C)NC(=O)[C@H](CO)NC(=O)[C@H](Cc1ccc(OP(=O)(O)O)cc1)NC(=O)[C@H](CCCNC(=N)N)NC(=O)[C@H](CCCNC(=N)N)NC(=O)[C@H](CCC(N)=O)NC(=O)[C@H](CC(=O)O)NC(=O)[C@H](CO)NC(=O)[C@H](CCC(N)=O)NC(C)=O)C(=O)N[C@@H](CC(=O)O)C(=O)N[C@@H](CCCNC(=N)N)C(=O)NCC(N)=O, source: synthetic peptide (synthesized in-house, RP-HPLC purified)) [CLIP2_Y972 phosphopeptide Ac-QSDQRR(pY)SLIDRG-NH2]	binds
Ac-QSDQRR[pY]SLIDPG-NH2 (SMILES CC[C@H](C)[C@H](NC(=O)[C@H](CC(C)C)NC(=O)[C@H](CO)NC(=O)[C@H](Cc1ccc(OP(=O)(O)O)cc1)NC(=O)[C@H](CCCNC(=N)N)NC(=O)[C@H](CCCNC(=N)N)NC(=O)[C@H](CCC(N)=O)NC(=O)[C@H](CC(=O)O)NC(=O)[C@H](CO)NC(=O)[C@H](CCC(N)=O)NC(C)=O)C(=O)N[C@@H](CC(=O)O)C(=O)N1CCC[C@H]1C(=O)NCC(N)=O, source: synthetic peptide (synthesized in-house, RP-HPLC purified)) [CLIP2_Y972_R977P phosphopeptide Ac-QSDQRR(pY)SLIDPG-NH2]	binds
